Experimental data published in the nanobody polyreactivity screen of Harvey et al. (2022).

experiment: yeast display, Sf9 membrane polyspecificity reagent, FACS + sequencing; frameworks hold sequencing errors
How it was run: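 Nanobodies came from a synthetic yeast display library in Saccharomyces cerevisiae BJ5465, induced with galactose for 36–48 hours and stained for 1 hour at 4 °C with 10% biotinylated, detergent-solubilized Sf9 membrane reagent. Cells were enriched on streptavidin microbeads and then FACS-sorted, with low and high (top ~1%) gates set on anti-HA fluorescence for expression and streptavidin fluorescence for reagent binding. Each polyreactivity label reflects the gate a clone came from. Genes were amplified by colony PCR, sequenced by MiSeq 2 × 250 and filtered by CDR length.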

Sequence	polyreactivity (PSR sort gate)
QVQLVESGGGLVQAGGSLRLSCAASGFIFVSYALGWYRQAPGKETELVAAISSSGGTTNYADSVKGRFTISRDNAKNTVYLQMNSLKPEDTAVYYCAAYVYQTPHSLHIYDYWGQGTQVTVSS	low polyreactivity
QVQLVESGGGLVQAGGSLRLSCAASGFIFVSYAMGWYRQAPGKERELVAAIDRIGGITYYADSVKGRFSISRDNAKNTVYLQMNSLKPEDTAVYYCAAAARYATVRVGREYYWGQGTQVTVSS	low polyreactivity
QVQLVESGGGLVQAGGSLRLSCAASGFIFVTNVMGWYRQAPGKERELVAAISRRGTNTYYADSVKGRFTISRDNAKNTVYLQMNSLKPEDTAVYYCNKLVFHTGGFRYDYWGQGTQVTVSS	high polyreactivity
QVQLVESGGGLVQAGGSLRLSCAASGFIFVTYAMGWYRQAPGKERELVAAITNSGGTTYYADSVKGRFTISRDNAKNTVYLQMNSLKPEDTAVYYCNKPYGAETAHREFDYWGQGTQVTVSS	low polyreactivity
QVQLVESGGGLVQAGGSLRLSCAASGFIFVYGNVMGWYRQAPGKERDLVASITSDGGSTNYADSVKGRFTISRDNAKNTVYLQMNSLKPEDTAVYYCNADVPRGFGGEYDYWGQGTQVTVSS	low polyreactivity
QVQLVESGGGLVQAGGSLRLSCAASGFIFVYNAMGWYRQAPGKEREFVAGISRSGGNTYYADSVKGRFTISRDNAKNTVYLQMNSLKPEDTAVYYCAVVNRRFGFPNVALRSNYGDYWGQGTQVTVSS	low polyreactivity
QVQLVESGGGLVQAGGSLRLSCAASGFIFVYNDMGWYRPAPGKERELVASISNGDNTNYADSVKGRFTISRDNAKNTVYLQMNSLKQEDTAVYYCAARGTIYVLGVPARPVPDGDYWGQGTQVTVSS	low polyreactivity
QVQLVESGGGLVQAGGSLRLSCAASGFIFVYNVMGWYRQAPGKERELVAAITSGGSTNYADSVKGRFTISRDNAKNTVFLKMNSLKPEDTAVYYCNADIYPDWIYLLYGYWGQGTQVTVSS	low polyreactivity
QVQLVESGGGLVQAGGSLRLSCAASGFIFWENGMGWYRQAPGKERELVAAISSGVGRTYYADSVKGRFTISRDNAKNTVYLQMNSLKPEDTAVYYCNRARYYREFDYWGQGTQVTVSS	high polyreactivity
QVQLVESGGGLVQAGGSLRLSCAASGFIFWFNAIGWSRQEPGKEREWVATISWSDTSTYYADSVKGRFTISRDNAKNTVYLQMNSLKPEDTAVYYCATDGRETWLPEYYWGQGTQVTVSS	low polyreactivity
QVQLVESGGGLVQAGGSLRLSCAASGFIFWGNAMGWYRQAPGKERELVAAINYSGGRTYYADSVKGRFTISRDNAKNTVYLQMNSLKAEATAVNYCAAKYRYHVSGYDYWGQATQVTVSS	high polyreactivity
QVQLVESGGGLVQAGGSLRLSCAASGFIFWLYAMGWYRQAPGKERELVAAISSSGGNTYYADSVKGRFTISRDNAKNTVYLQMNSLKPEDTAVYYCAATYSYGRTYSGYYWGQGTQVTVSS	low polyreactivity
QVQLVESGGGLVQAGGSLRLSCAASGFIFWQYTMGWYRPAPGKERELVAAINGGSATYYADSVKGRFTISRDNAKNTVYLQMNSLKPEDTAVYYCAADRYLYHYRYEYYYWGQGTQVTVSS	high polyreactivity
QVQLVESGGGLVQAGGSLRLSCAASGFIFWRYTMGWYRQAPGKERELVAVISWSGDNTYADSVKGRFTISRDNAKNTVYLQMNSLKPEDTAVYYCGVYRYDYWGQGTQVTVSS	low polyreactivity
QVQLVESGGGLVQAGGSLRLSCAASGFIFWSNAMGWYRQAPGKERELVAAISWSGGSTYYADSVKGRFTISRDNAKNTVYLQMNSLKQEDTAVYYCAAEFWGWDWDLEYWGQGTQVTVSS	high polyreactivity
QVQLVESGGGLVQAGGSLRLSCAASGFIFWVNAMGWYRKAPGKERELVAAISSSYGSTYYADYVKGRFSISRDNAKNTVYLQMNRLKPEDTAVCYSAARWLGHFYPFFLQGLSGFDYWGQGTHVTVSS	low polyreactivity

Sequence	polyreactivity (PSR sort gate)
QVQLVESGGGLVQAGGSLRLSCAASGFIFWYYAMGWYRQAPGKERELVATITRGGSTYYADSVKGRFTISRDNAKNTFYLQMNSLKPEDTAVYYCNAVRPKIYDYWGQGTQVTVSS	high polyreactivity
QVQLVESGGGLVQAGGSLRLSCAASGFIFWYYTMGGYRQAPGKERELVAAISRSGASTYYADSVKGRFTISRDNAKNTVYLQMNSLKPEDTAVYYCAKDYQTYSGSSDFDYWGQGTQVTVSS	high polyreactivity
QVQLVESGGGLVQAGGSLRLSCAASGFIFYAYAMGWYRQAPGKERELVAAIDSGGNTYADSVKGRFTISRDNAKNTVYLQMNSLKPEDTAVYYCAVDGGEFSSYGYWGQGTQVTVSS	low polyreactivity
QVQLVESGGGLVQAGGSLRLSCAASGFIFYAYDMGWYRQAPGKERELVAAISRVGSTYYADSVKGRFTISRDNAKNTVYLQMNSLKPEDTAVYYCATKFGTTRGFGYWGQGTQVTVSS	high polyreactivity
QVQLVESGGGLVQAGGSLRLSCAASGFIFYDYAMGWNRQAPGKERELVAAISSGGSTNYADSVKGRFTISRDNAKNTVYLQMNSLKPEDTAVYFCAADDRSYASWKRDYDYWGQGTQVTVSS	low polyreactivity
QVQLVESGGGLVQAGGSLRLSCAASGFIFYDYAMGWYRQAPGKERELVAAISRGGSSTYYADSVKGRFTISRDNAKNTVYLQMNSLKPEDTAVYYCAAYRWYEYDYWGQGTQVTVSS	high polyreactivity
QVQLVESGGGLVQAGGSLRLSCAASGFIFYDYVMGWYRQAPGKERELVAAISASGGSTYYADSVKGRFTISRDNAKNTVYLQMNCLKPEDTAVYYCNARPKYDSGHYYWGQGTQVTVSS	high polyreactivity
QVQLVESGGGLVQAGGSLRLSCAASGFIFYEYDMGWYRQAPGKERELVAAISVSGGSTYYADSVKGRFTISRDNAKNTVYLQRNSLKPEDTAVYYCAVFLPDYGRYDYWGQGTQVTVSS	low polyreactivity
QVQLVESGGGLVQAGGSLRLSCAASGFIFYFNAMGWYRQAPGKERELVAAISASGGRTYFADSVKGRFTISRDNAKNTVYLLMNSLKPEDTAVYYCAARGGSYYFRRYNYWGQGTQVNVSS	high polyreactivity
QVQLVESGGGLVQAGGSLRLSCAASGFIFYGYMGWYRQAPGKERELVAAISYTGGSTYYADSVKGRFTISRDNAKNTVYLQMNSLKPEDTAVYYCARDWRTKWFGYWGQGTQVTVSS	low polyreactivity
QVQLVESGGGLVQAGGSLRLSCAASGFIFYGYVMGWYRQAPGKERELVAAITYNGGRTYYADSVKGRFTISRDNAKNTVYLQMNSLKPEDTAVYYCAALGYDGDYDYWGQGTQVTVSS	low polyreactivity
QVQLVESGGGLVQAGGSLRLSCAASGFIFYIYAMGWYRQAPGKERELVAAISWNGGSTYYADSVKGRFTISRDNAKNTVYLLMNSLKPEDTAVYYCATVARYRYGTGRFDYWGQGTQVTVSS	high polyreactivity
QVQLVESGGGLVQAGGSLRLSCAASGFIFYIYAMGWYRQAPGKEWELVAAISGGGGSTYYAASVKGRFTISRDNAKNTVYLQINSLKPEDTAVSYCAARYDVAWYSKRYSWGQGTQVTVSS	high polyreactivity
QVQLVESGGGLVQAGGSLRLSCAASGFIFYKNAMGLYRQAPGKERELVAAISRRGSSTYYADSVKGRFTISRDNAKNTVYLQMNSLKPEDTAVYYCAARFTRRDYWGQGTQVTVSS	high polyreactivity
QVQLVESGGGLVQAGGSLRLSCAASGFIFYKYAMGWYRQAPGKERELVAAITRSGGSTYYADSVKGRFTISRDNAKNTVYLQMNSLKPEDTAVYYCAKRSYRARDAVPGGFDSWGQGTQVTVSS	high polyreactivity
QVQLVESGGGLVQAGGSLRLSCAASGFIFYLYAMGWYRQAPGKERELVAAIDSGDDTDYADSVKGRFTISRDNAKNTVYLQMNSLKPEDTAVYYCAAGAYWPWGEDYWGQGTQVTVSS	high polyreactivity
